Laboratory results: patent US8697386B2, “Methods and compositions for modulating hepsin activation of macrophage-stimulating protein” (Genentech, Inc., priority 2009, dated 2014)
* marks the point of attachment. CH2Cl = ClC*

Key:
[1] = biological target: T1, cell surface expressed hepsin in LnCap-34 cells (Homo sapiens, UniProt P05981); test: Pro-MSP activation by cell surface expressed hepsin in LnCap-34 cells; format: cell-based; settings: 1 μM inhibitor, 15 minutes preincubation, 125I-pro-MSP 25 μg/ml, 3 hours, 37° C.
T1 construct: expressed in transfected cells; host or cells: LnCaP-34 cells
Method: Confluent LnCap-34 cells cultured in 24-well plates were washed with serum-free RPMI-1640 medium and were incubated either alone or with different anti-hepsin inhibitors (1 μM of anti-hepsin antibody Fab25/1 μM of KD1/1 μM of Ac-KQLR-cmk (‘KLQR” disclosed as SEQ ID NO:10)) in serum-free RPMI-1640 medium for 15 minutes at 37° C. prior to addition of 125I-labeled pro-MSP (25 μg/ml). After incubation for 3 hours at 37° C., aliquots were removed and analyzed by SDS-PAGE (4-20% gradient gel) (Invitrogen, Carlsbad, Calif.) followed by exposure to X-ray films.

Ron signaling pathway = test: Immunoblot for phosphorylated downstream kinases in A2780 cells overexpressing human Ron; format: cell-based; settings: pro-MSP 10 and 50 ng/ml, 10 nM hepsin, 1 hour
Method: Immunoblot for the detection of phosphorylated kinases: A human ovarian carcinoma cell line (A2780) overexpressing human Ron was used to study the phosphorylation of Ron and other downstream kinase. Cells at a density of 2×10^5 cells/well were cultured in 12-well plate and serum-starved for 24 hours. The cells were then stimulated with either pro-MSP (10 and 50 ng/ml) alone or in presence of 10 nM Hepsin for 1 hour. Mature MSP from a commercial source and hepsin were used as controls. Samples were prepared by washing cells twice with cold PBS followed by addition of 200 ul lysis buffer. Samples were then analyzed by SDS/PAGE on 4-12% Tris-glycine gels (Invitrogen, Carlsbad, Calif.). Proteins were transferred onto nitrocellulose membranes and subsequently treated with anti-Ron antibody or anti-phospho-AKT antibody or anti-phospho-MAPK antibody or anti-phospho-S6 antibody, overnight at 4° C. After washing, membranes were incubated with IRDye800-conjugated goat anti-mouse IgG (Rockland, Gilbertsville, Pa.) and AlexaFluor 680 goat anti-rabbit IgG (Invitrogen) for 1 h. Proteins were detected with the Odyssey Infrared Imaging System (LI-COR Biosciences, Lincoln, Nebr.).

T1 sequence (P05981 whole entry): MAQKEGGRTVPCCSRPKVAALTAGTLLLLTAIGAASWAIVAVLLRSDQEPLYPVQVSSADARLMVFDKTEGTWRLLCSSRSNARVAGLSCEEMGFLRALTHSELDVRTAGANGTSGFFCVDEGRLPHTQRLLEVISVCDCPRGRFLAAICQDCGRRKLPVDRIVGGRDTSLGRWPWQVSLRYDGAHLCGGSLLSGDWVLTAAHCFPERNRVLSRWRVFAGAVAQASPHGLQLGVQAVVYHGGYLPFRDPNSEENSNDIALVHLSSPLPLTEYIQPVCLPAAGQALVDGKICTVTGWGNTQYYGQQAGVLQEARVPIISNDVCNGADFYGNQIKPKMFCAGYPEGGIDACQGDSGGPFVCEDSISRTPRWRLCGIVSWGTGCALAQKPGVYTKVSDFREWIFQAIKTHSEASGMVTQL

Substance | blocking of pro-MSP proteolytic cleavage by cell surface hepsin [1] | phosphorylation of MAP kinase and S6 kinase (activation of Ron signaling pathway) (Ron signaling pathway)
Ac-KQLR-chloromethylketone (Ac-KQLR-CH2Cl; SMILES CC(=O)N[C@@H](CCCCN)C(=O)N[C@@H](CCC(N)=O)C(=O)N[C@@H](CC(C)C)C(=O)N[C@@H](CCCNC(=N)N)C(=O)CCl) [reference compound] | effectively blocked | 
KD1: Kunitz domain 1 (KD1) of HAI-1 or HAI-1B, hepsin inhibitor (TEDYCLASNKVGRCRGSFPRWYYDPTEQICKSFVYGGCLGNKNNYLREEECILACRGV) | effectively blocked | 
hepsin: extracellular domain of the human recombinant hepsin, type II transmembrane serine protease |  | Neither hepsin nor pro-MSP alone was effective
